Where a chain is given by its changes, count along the chain named.
B1: HC2-LC2 (antibody, V domains shown)
VH: EVQLVESGGGLVQPGGSLRLSCAASGFTFNNYWMSWVRQAPGKGLEWVASISNIGGTIYYPDSVKGRFTISRDSAKNSLYLQMNSLRAEDTAVYYCTRDLRMSDYFDYWGQGTLVTVSS
VL: QFVLTQPHSVSESPGKTVTISCKRSTGNIGSNYVSWYQQRPGSSPTTVIYRDDQRPSGVPDRFSGSIDRSSNSASLTISGLKTEDEADYYCHSYSTGMYIFGGGTKLTVL
B2: HC2-LC3 (antibody, V domains shown)
VH: B1 VH
VL: B1 VL with V3M, K23T, S44A, G80R
B3: HC1-LC1 (antibody, V domains shown)
VH: B1 VH with S74N
VL: B1 VL with Q1N, V3M, K23T
B4: HC1-LC2 (antibody, V domains shown)
VH: B1 VH with S74N
VL: B1 VL
B5: HC1-LC3 (antibody, V domains shown)
VH: B1 VH with S74N
VL: B1 VL with V3M, K23T, S44A, G80R

Target: Pfs48/45 6C domain (NF54) (Plasmodium falciparum NF54, UniProt V5NSK3)

| Binder | binding result |
| --- | --- |
| B1 | binds |
| B2 | binds |
| B3 | binds |
| B4 | binds |
| B5 | binds |

— article PMC6203815 (Nature Communications, 2018)
